Results reported in patent publication US6127178A, “Apoptotic peptides” (The Regents of the University of California, priority 1998, dated 2000).
Entries after “also recorded” stand apart in the source; their conditions may differ.

B1: Id3: Id family helix-loop-helix protein expressed in 32D.3 cells from pMAMNeo (protein, UniProt P41133 1-119, looked up)
DNA-binding protein inhibitor …: MKALSPVRGCYEAVCCLSERSLAIARGRGKSPSTEEPLSLLDDMNHCYSRLRELVPGVPRGTQLSQVEILQRVIDYILDLQVVLAEPAPGPPDGPHLPIQTAELTPELVISKDKRSFCH
B2: Id2: full-length Id2 helix-loop-helix protein expressed from transfected cDNA (pMAMNeo dex-inducible or tet-regulated vector) (protein, UniProt Q02363 1-134, looked up)
chain: MKAFSPVRSVRKNSLSDHSLGISRSKTPVDDPMSLLYNMNDCYSKLKELVPSIPQNKKVSKMEILQHVIDYILDLQIALDSHPTIVSLHHQRPGQNQASRTPLTTLNTDISILSLQASEFPSELMSNDSKALCG
modifications: full-length

Experiments:
[1] = tested on: 32D.3 myeloid cells; experiment: Viability by trypan blue dye exclusion in 32D.3 transfectants; assay type: cell-based, mouse; details: for rates of cell death: following withdrawal of IL-3, relative to control cells
Description: cDNA constructs and establishment of cell lines. The mouse 32D.3 myeloid cell line was maintained in RPMI 1640 medium (GIBCO) supplemented with 10% fetal calf serum and 20U of IL-3 per ml as previously described (3, 12). The human IdI, Id2 and Id3 cDNAs (5, 6, 11) were introduced into the pMAM-Neo expression plasmid (Clontech, Palo Alto, Calif.) at the Xhol site. Mutations in Id2 and Id3 were generated by the polymerase chain reaction. To prepare an N-terminus deletion mutant, a 0.3 kb SalI-XhoI fragment lacking the region encoding amino acids 1-34 was inserted into the pMAM vector. A C-terminally truncated Id2 was prepared by removing a SmaI fragment containing cDNA corresponding to amino acids 93-135. Id2ΔHLH was prepared as previously described (34) and subcloned into the pMAM vector at the XhoI site. The primary structure of all mutants was confirmed by DNA sequencing. 32D.3 cells were electroporated as previously described with 10 μg of linearized plasmid DNA (12). Transfected cells were selected in medium containing 0.4/mg/ml G418 and single cell clones were isolated by limiting dilution, as well as pools of transfectants. To prepare additional cultures, drug-resistant clones and pools of clones were prepared by transfecting cells with pMAMNeo DNA alone and pMAMNeo containing Id2 cDNAs in the antisense orientation. 32D.3 cells were grown in suspension and maintained at equivalent exponential growth phases by seeding at 1×10^5 cells per ml culture medium. All subsequent analyses were performed using cells harvested at 0.5-1×10^6 cells per ml.
Viability and apoptosis assays. To investigate the effects of Id gene expression upon viability, cells growing exponentially in the presence of IL-3 (20 U/ml) were treated with dexamethasone for 16 hours. The cells were collected by centrifugation at 200×g for 10 min, washed twice in PBS, and resuspended in RPMI medium with 10% fetal bovine serum without IL-3. The number of viable cells was determined at various times after IL-3 withdrawal by trypan blue dye exclusion. […]

[2] = tested on: Bax; experiment: Immunoblot of apoptosis regulators in 32D.3 transfectants; assay type: cell-based, mouse
Protocol: Expression of Id genes and immunoblot analysis. Id gene expression was induced by addition of 1 μM dexamethasone (Sigma) for 16 hours. Cells were then collected at the indicated times by centrifugation, washed in PBS, and whole cell lysates were prepared by resuspending the pellets in RIPA buffer (150 mM NaCl, 1 mM EDTA, 1% Nonidet P-40, 1% sodium deoxycholate, 20 mM Tris-HCl pH 7.2) containing protease inhibitors (1 μM phenylmethyl-sulfonylfluoride, 0.01 μM benzamidine HCl, 1 μg/ml o-phenanthroline, and 0.5 μg/ml each of antipain, leupeptin, pepstatin A, and aprotinin). The lysates were then clarified by centrifugation and examined by 12.5% SDS-PAGE. Western blot analysis was carried out to detect expression of Id proteins using the sc-489 rabbit polyclonal antibody against Id2 (Santa Cruz Biotechnology, Santa Cruz, Calif.) and rabbit polyclonal antibodies generated against bacterially expressed Id1 or Id3 (C. Hernandez, unpublished). The expression of Bax proteins was monitored using a rabbit anti-Bax polyclonal sc-930 (Santa Cruz Biotechnology, Santa Cruz, Calif.). Briefly, blots were washed with blocking buffer [4% milk powder and 0.2% Tween-20 in phosphate-buffered saline (PBS)], incubated with anti-Id2 or Bax antibodies (used at a 1:1000 dilution in blocking buffer), washed, and incubated with peroxidase-conjugated […]. […]

[3] = tested on: U20S osteosarcoma cells; experiment: DNA content by flow cytometry in tet-regulated U20S transfectants; assay type: cell-based; details: clone 9, four days after removal of tetracycline (1000 ng/ml), in serum
Protocol: To prepare a recombinant expression construct encoding Id2 which could be regulated by the addition of tetracycline to the culture media, the Kpn1/HindIII filled-in fragment of Id2 cDNA was inserted into the pUHD 10-3 vector (26) at EcoRI blunt-ended sites to prepare a tTA-responsive Id2 expression vector. DNA from pUHD-10-3Id2 was used in addition to DNA from pTet-TAk (GIBCO), encoding the tetracycline-regulatable tTA protein. Stable transfectants were prepared in the U20S osteosarcoma cell line by performing a 3 vector transfection using LipofectAmine (GIBCO) at a DNA ratio of 5:5:1 between pTet-Id2:ptet-TAk:pcDNA-3 and selected in the presence of DME/10%FBS/G418 (0.6 mg/ml)/tetracycline (5 μg/ml) media was changed after 2 days. […] To show expression of Id2, cells were trypsinized and plated with varying concentrations of tetracycline (0-1000 ng/ml).
To determine the extent of apoptosis in U20S cells transfected with pTet-Id2 DNA, cells were plated at a density of 5×10^5 cells per p100 plate and allowed to adhere for 24 hours in the presence of 1000 ng/ml tetracycline (tet). Then the media was changed to either 0 or 1000 ng/ml tet after 2 washes with PBS. The cells were maintained in the culture for 4 days before harvesting by trypsinization (floating cells were also harvested). […] DNA content was determined by flow cytometry on a FACSort (53).

[4] = tested on: 32D.3 myeloid cells; experiment: FACS analysis of subdiploid population in 32D.3 transfectants; assay type: cell-based, mouse; details: following IL-3 removal
Protocol: Id2 enhances apoptosis in 32D.3 myeloid cells following IL-3 withdrawal. Since Id2 levels in 32D.3 cells increased in association with IL-3 withdrawal, we examined the effect of increasing Id2 expression on the apoptotic response of these cells. 32D.3 myeloid progenitor cells were transfected with the dexamethasone (dex)-inducible pMAMNeo expression vector containing a full-length Id2 cDNA. The expression of Id2 in clones and pools of transfectants was determined in immunoblots, and we observed a 3-4 fold increase in Id2 protein levels upon treatment of the cells with dex for 16 hours as compared to cells transfected with vector DNA or with a pMAMNeo recombinant plasmid with Id2 in the antisense orientation.

[5] = tested on: 32D.3 myeloid cells; experiment: Apoptosis (TUNEL) assay in 32D.3 transfectants; assay type: cell-based, mouse; details: following IL-3 withdrawal, dex-induced expression
Description: cDNA constructs and establishment of cell lines. The mouse 32D.3 myeloid cell line was maintained in RPMI 1640 medium (GIBCO) supplemented with 10% fetal calf serum and 20U of IL-3 per ml as previously described (3, 12). The human IdI, Id2 and Id3 cDNAs (5, 6, 11) were introduced into the pMAM-Neo expression plasmid (Clontech, Palo Alto, Calif.) at the Xhol site. Mutations in Id2 and Id3 were generated by the polymerase chain reaction. To prepare an N-terminus deletion mutant, a 0.3 kb SalI-XhoI fragment lacking the region encoding amino acids 1-34 was inserted into the pMAM vector. A C-terminally truncated Id2 was prepared by removing a SmaI fragment containing cDNA corresponding to amino acids 93-135. Id2ΔHLH was prepared as previously described (34) and subcloned into the pMAM vector at the XhoI site. The primary structure of all mutants was confirmed by DNA sequencing. 32D.3 cells were electroporated as previously described with 10 μg of linearized plasmid DNA (12). […]
Expression of Id genes and immunoblot analysis. […] The expression of Bax proteins was monitored using a rabbit anti-Bax polyclonal sc-930 (Santa Cruz Biotechnology, Santa Cruz, Calif.). […]
Viability and apoptosis assays. […] The number of viable cells was determined at various times after IL-3 withdrawal by trypan blue dye exclusion. […]

Molecule	rates of cell death [1]	levels of other known regulators including Bad, Bcl-2, Bcl-XL and Bcl-XS ([2]; cultured in IL-3)	Bax levels ([2]; cultured in IL-3, relative to vector transfected cells)	effects on viability ([1]; presence of IL-3, 16 hours of treatment with dex)	apoptotic cells with subdiploid DNA content [3]	subdiploid population, indicative of apoptotic DNA fragmentation [4]	extent of apoptosis by the TUNEL assay [5]
B1	without effect	–	–	–	–	–	–
B2	dramatically accelerated rates of death	no changes	elevated	only minor effects on viability	a large proportion of apoptotic cells with subdiploid DNA content	significantly augmented	significantly elevated apoptosis; also recorded: concentration-dependent; also recorded: expected enhancement in apoptosis
